Patent publication US7402570 (Johns Hopkins, dated 2008)

Biological target: T1, human p53 protein, full length (human, UniProt P04637 1-393)
T1 construct: range 1-393; it is not clear whether that entry is whole p53 or the peptide, so it is not used here
Assay: yeast two-hybrid, lexA-responsive β-galactosidase reporter; (+) colonies turned blue following 24 hours (strain 4)

T1 sequence (P04637 whole entry): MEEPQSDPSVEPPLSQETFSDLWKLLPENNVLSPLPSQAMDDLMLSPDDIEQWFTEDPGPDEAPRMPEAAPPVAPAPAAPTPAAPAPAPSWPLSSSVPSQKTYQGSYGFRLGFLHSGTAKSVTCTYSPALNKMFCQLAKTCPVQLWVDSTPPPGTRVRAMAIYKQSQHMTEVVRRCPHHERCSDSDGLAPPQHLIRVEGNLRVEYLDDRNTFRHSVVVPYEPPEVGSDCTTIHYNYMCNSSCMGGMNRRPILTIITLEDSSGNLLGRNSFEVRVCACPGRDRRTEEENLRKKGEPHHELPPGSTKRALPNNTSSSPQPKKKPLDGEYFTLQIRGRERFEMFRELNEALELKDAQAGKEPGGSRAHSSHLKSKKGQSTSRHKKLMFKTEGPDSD

- binding result: binds
B1: lexA-MDM2 (1-118) (other, not shown: small tags and cut ends)
chain: MCNTNMSVPTDGAVTTSQIPASEQETLVRPKPLLLKLLKSVGAQKDTYTMKEVLFYLGQYIMTKRLYDEKQQHIVYCSNDLLGDLFGVPSFSVKEHRKIYTMIYRNLVVVNQQESSDS
notes: Genetically engineered clone, expressed in yeast; also called MDM2 codons 1 to 118 fused to lexA
